Source: patent publication US20110002945A1, “Use of immunoglobulin heavy and light chains or fragments thereof to bind to aggregated amyloidogenic proteins” (published 2011)

Experiments:
IAPP fibrils = biological target: T1, IAPP fibrils (Homo sapiens (Human), UniProt P10997); experiment: EuLISA on plate-immobilized fibrils (column heads of c9 and c10 seem swapped)
T1 peptide: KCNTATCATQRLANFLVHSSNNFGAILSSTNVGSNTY

[1] = biological target: dityrosine cross-linked Aβ preparation (CAPS) (Homo sapiens (Human), UniProt P05067, dityrosine cross-linked); experiment: EuLISA on plate-immobilized CAPS
fibrillar Aβ1-40 peptide = fibrillar Aβ1-40 peptide (Homo sapiens (Human), UniProt P05067); experiment: EuLISA on plate-immobilized fibrils
Experimental: High binding activated microtiter plate wells were coated with 400 ng of fibrillar Aβ1-40 peptide, which was prepared by aggregation in 10 mM PBS of Aβ1-40 peptide, previously disaggregated by the trifluoro acetic acid/hexafluoroisopropanol procedure [Adekar et al., J. Biol. Chem. 285, 1066-1074 (2010)]. After blocking with 1% bovine serum albumin (BSA), F1 was serially diluted in 10 mM PBS/1% BSA and applied in 100 μl aliquots to coated wells. After incubation for 1 hr, wells were washed, and incubated with biotinylated goat anti-human IgG as a secondary antibody for 1 hr. Thereafter bound HC F1 was determined with a Eu³⁺-streptavidine conjugate followed by the release enhancement reagent (EuLISA) and measuring the amount of Eu³⁺ by time-resolved fluorescence (Victor 1420 multilabel counter) against a standard curve established with known concentrations of Eu³⁺.

B1: antibody heavy chain F1 (other)
heavy: AMDWTWSILFLVAAATGAHSQVQLVQSGAEVKKPGASVKVSCKASGYTFSSNGIIWVRQAPGQGLEWLGWISGYNGKTRYAQKVQGRVTITTDTSTSTAYMELRSLRSDDTAVYYCAREKTMVRGAISGYSDYWGQGTLVTVSSASTKGPSVFPLAPSSKSTSGGTAALGCLVKDYFPEPVTVSWNSGALTSGVHTFPAVLQSSGLYSLSSVVTVPSSSLGTQTYICNVNHKPSNTKVDKKRVEPKSCDKTHTCPPCPAPELLGGPSVFLFPPKPKDTLMISRTPEVTCVVVDVSHEDPEVKFNWYVDGVEVHNAKTKPREEQYNSTYRVVSVLTVLDHQDWLNGKEYKCKVSNKALPAPIEKTISKAKGQPREPQVYTLPPSREELMTKNQVSLTCLVKGFYPSDIAVEWESNGQPENNYKTTPPVLDSDGSFFLYSKLTVDKSRWQQGNVFSCSVMHEALHNHYTQKSLSLSPGK
**Q.** Which results are given for B1?
**A.** EC50 (IAPP fibrils): 40 nM; EC50 [1]: 28 nM; EC50 (fibrillar Aβ1-40 peptide): 23 nM
